Tests used:
[1] = system: mPer1 promoter; assay: NHR-promoter luciferase screen, mPer1 promoter; type: cell-based, mouse; conditions: for Luc. act., normalized to lacZ / Normalized Luc. act., normalized to control: Per1 promoter reporter, co-transfected HR, with or without its ligand; for Normalized Luc. act., normalized to control: relative to control; for luciferase activity normalized to lacZ activity and to a control, mPer1: mPer1 promoter-luciferase, CV-1 cells, NHR +/- ligand, control = 1.00
How it was run: (§1)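 CV-1 cells were co-transfected with 50 ng NHR (homodimer or NHR/RXR heterodimer), 100 ng promoter-luciferase construct and 50 ng LacZ. Luciferase was normalized to LacZ and to a no-NHR/no-ligand control.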

[2] = system: mUCP3 promoter; assay: NHR-promoter luciferase screen, mUCP3 promoter; type: cell-based, mouse; conditions: for Normalized Luc. act., normalized to control / Luc. act., normalized to lacZ: mUCP3 promoter reporter; for Normalized Luc. act., normalized to control: HR without or with its ligand, relative to control; for Luc. act., normalized to lacZ: hormone receptor (HR) without or with its ligand; for mUCP3 promoter reporter activity: transcription factor +/- ligand, control = 1.00
How it was run: as §1

[3] = system: MCP-1 promoter; assay: NHR-promoter luciferase screen, MCP-1 promoter; type: cell-based; conditions: for Normalized Luc. act., normalized to control / Luc. act., normalized to lacZ: MCP-1 promoter reporter; for Normalized Luc. act., normalized to control: HR without or with its ligand, relative to control; for Luc. act., normalized to lacZ: hormone receptor (HR) without or with its ligand; for mMCP-1 promoter reporter activity: transcription factor +/- ligand, control = 1.00
How it was run: as §1

[4] = system: hCYP3A4 promoter; assay: NHR-promoter luciferase screen, hCYP3A4 promoter; type: cell-based, human; conditions: for Luc. act., normalized to lacZ / Normalized Luc. act., normalized to control: CYP3A4 promoter, HR/ligand component; for hCYP3A4 promoter reporter activity: transcription factor +/- ligand, control = 1.00
How it was run: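 CV-1 cells co-transfected with NHR homodimer or NHR/RXR heterodimer (pcDNA3.1, C-terminal V5H6 tag), promoter-luciferase construct and LacZ transfection control. Orphan receptors screened without ligand. Luciferase normalized to LacZ and to no-NHR/no-ligand control.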

[5] = system: mADRP promoter; assay: NHR-promoter luciferase screen, mADRP promoter; type: cell-based, mouse; conditions: for Luc. act., normalized to lacZ / Normalized Luc. act., normalized to control: ADRP promoter, HR/ligand component; for mADRP promoter reporter activity: transcription factor +/- ligand, control = 1.00
How it was run: as §1

[6] = system: mABCA1 promoter; assay: NHR-promoter luciferase screen, mABCA1 promoter; type: cell-based, mouse; conditions: for Luc. act., normalized to lacZ / Normalized Luc. act., normalized to control: ABCA1 promoter, hormone receptor with or without its ligand; for Normalized Luc. act., normalized to control: relative to control; for mABCA1 promoter reporter activity: transcription factor +/- ligand, control = 1.00
How it was run: as §1

Row | Molecule | Luc. act., normalized to lacZ [1] | Normalized Luc. act., normalized to control [1] | luciferase activity normalized to lacZ activity and to a control, mPer1 [1] | Normalized Luc. act., normalized to control [2] | Luc. act., normalized to lacZ [2] | mUCP3 promoter reporter activity [2] | Normalized Luc. act., normalized to control [3] | Luc. act., normalized to lacZ [3] | mMCP-1 promoter reporter activity [3] | Luc. act., normalized to lacZ [4] | Normalized Luc. act., normalized to control [4] | hCYP3A4 promoter reporter activity [4] | Luc. act., normalized to lacZ [5] | Normalized Luc. act., normalized to control [5] | mADRP promoter reporter activity [5] | Luc. act., normalized to lacZ [6] | Normalized Luc. act., normalized to control [6] | mABCA1 promoter reporter activity [6]
1 | RORb: RAR-related Orphan Receptor β (NR1F2), cDNA driver (protein, UniProt Q92753 1-470, looked up) Nuclear receptor ROR-beta: MCENQLKTKADATAQIEVIPCKICGDKSSGIHYGVITCEGCKGFFRRSQQNNASYSCPRQRNCLIDRTNRNRCQHCRLQKCLALGMSRDAVKFGRMSKKQRDSLYAEVQKHQQRLQEQRQQQSGEAEALARVYSSSISNGLSNLNNETSGTYANGHVIDLPKSEGYYNVDSGQPSPDQSGLDMTGIKQIKQEPIYDLTSVPNLFTYSSFNNGQLAPGITMTEIDRIAQNIIKSHLETCQYTMEELHQLAWQTHTYEEIKAYQSKSREALWQQCAIQITHAIQYVVEFAKRITGFMELCQNDQILLLKSGCLEVVLVRMCRAFNPLNNTVLFEGKYGGMQMFKALGSDDLVNEAFDFAKNLCSLQLTEEEIALFSSAVLISPDRAWLIEPRKVQKLQEKIYFALQHVIQKNHLDDETLAKLIAKIPTITAVCNLHGEKLQVFKQSHPEIVNTLFPPLYKELFNPDCATGCK | 112.0 | 0.8 | 0.78 | 1.3 | 0.9 | 1.33 | 1.6 | 176.3 | 1.65 | 2.5 | 0.6 | 0.56 | 685.3 | 1.4 | 1.38 | 26.4 | 4.7 | 4.69
2 | RXRg: Retinoic X Receptor γ (NR2B3), cDNA driver (protein, UniProt P48443 1-463, looked up) Retinoic acid receptor …: MYGNYSHFMKFPAGYGGSPGHTGSTSMSPSAALSTGKPMDSHPSYTDTPVSAPRTLSAVGTPLNALGSPYRVITSAMGPPSGALAAPPGINLVAPPSSQLNVVNSVSSSEDIKPLPGLPGIGNMNYPSTSPGSLVKHICAICGDRSSGKHYGVYSCEGCKGFFKRTIRKDLIYTCRDNKDCLIDKRQRNRCQYCRYQKCLVMGMKREAVQEERQRSRERAESEAECATSGHEDMPVERILEAELAVEPKTESYGDMNMENSTNDPVTNICHAADKQLFTLVEWAKRIPHFSDLTLEDQVILLRAGWNELLIASFSHRSVSVQDGILLATGLHVHRSSAHSAGVGSIFDRVLTELVSKMKDMQMDKSELGCLRAIVLFNPDAKGLSNPSEVETLREKVYATLEAYTKQKYPEQPGRFAKLLLRLPALRSIGLKCLEHLFFFKLIGDTPIDTFLMEMLETPLQIT | 94.5 | 0.7 | 0.66 | 1.4 | 1.0 | 1.41 | 2.0 | 212.4 | 1.98 | 0.9 | 0.2 | 0.19 | 665.8 | 1.3 | 1.34 | 18.3 | 3.3 | 3.26
3 | TR4: Testicular Orphan Nuclear Receptor 4 (NR2C2), cDNA driver (protein, UniProt P49116 1-596, looked up) Nuclear receptor subfamily 2 …: MTSPSPRIQIISTDSAVASPQRIQIVTDQQTGQKIQIVTAVDASGSPKQQFILTSPDGAGTGKVILASPETSSAKQLIFTTSDNLVPGRIQIVTDSASVERLLGKTDVQRPQVVEYCVVCGDKASGRHYGAVSCEGCKGFFKRSVRKNLTYSCRSNQDCIINKHHRNRCQFCRLKKCLEMGMKMESVQSERKPFDVQREKPSNCAASTEKIYIRKDLRSPLIATPTFVADKDGARQTGLLDPGMLVNIQQPLIREDGTVLLATDSKAETSQGALGTLANVVTSLANLSESLNNGDTSEIQPEDQSASEITRAFDTLAKALNTTDSSSSPSLADGIDTSGGGSIHVISRDQSTPIIEVEGPLLSDTHVTFKLTMPSPMPEYLNVHYICESASRLLFLSMHWARSIPAFQALGQDCNTSLVRACWNELFTLGLAQCAQVMSLSTILAAIVNHLQNSIQEDKLSGDRIKQVMEHIWKLQEFCNSMAKLDIDGYEYAYLKAIVLFSPDHPGLTSTSQIEKFQEKAQMELQDYVQKTYSEDTYRLARILVRLPALRLMSSNITEELFFTGLIGNVSIDSIIPYILKMETAEYNGQITGASL | 225.6 | 1.6 | 1.57 | 3.2 | 2.2 | 3.19 | 2.1 | 229.9 | 2.15 | 7.7 | 1.7 | 1.74 | 1003.3 | 2.0 | 2.02 | 36.4 | 6.5 | 6.49
4 | TR2: Testicular Orphan Nuclear Receptor 2 (NR2C1), cDNA driver (protein, UniProt P13056 1-603, looked up) Nuclear receptor subfamily 2 …: MATIEEIAHQIIEQQMGEIVTEQQTGQKIQIVTALDHNTQGKQFILTNHDGSTPSKVILARQDSTPGKVFLTTPDAAGVNQLFFTTPDLSAQHLQLLTDNSPDQGPNKVFDLCVVCGDKASGRHYGAVTCEGCKGFFKRSIRKNLVYSCRGSKDCIINKHHRNRCQYCRLQRCIAFGMKQDSVQCERKPIEVSREKSSNCAASTEKIYIRKDLRSPLTATPTFVTDSESTRSTGLLDSGMFMNIHPSGVKTESAVLMTSDKAESCQGDLSTLANVVTSLANLGKTKDLSQNSNEMSMIESLSNDDTSLCEFQEMQTNGDVSRAFDTLAKALNPGESTACQSSVAGMEGSVHLITGDSSINYTEKEGPLLSDSHVAFRLTMPSPMPEYLNVHYIGESASRLLFLSMHWALSIPSFQALGQENSISLVKAYWNELFTLGLAQCWQVMNVATILATFVNCLHNSLQQDKMSTERRKLLMEHIFKLQEFCNSMVKLCIDGYEYAYLKAIVLFSPDHPSLENMEQIEKFQEKAYVEFQDYITKTYPDDTYRLSRLLLRLPALRLMNATITEELFFKGLIGNIRIDSVIPHILKMEPADYNSQIIGHSI | 103.1 | 0.7 | 0.72 | 2.0 | 1.4 | 2.01 | 2.9 | 311.2 | 2.91 | 2.0 | 0.4 | 0.44 | 684.7 | 1.4 | 1.38 | 31.2 | 5.6 | 5.55
5 | HNF4g: Hepatocyte Nuclear Factor γ (NR2A2), cDNA driver (protein, UniProt Q14541 1-408, looked up) Hepatocyte nuclear factor …: MNTTDNGVNCLCAICGDRATGKHYGASSCDGCKGFFRRSIRKSHVYSCRFSRQCVVDKDKRNQCRYCRLRKCFRAGMKKEAVQNERDRISTRRSTFDGSNIPSINTLAQAEVRSRQISVSSPGSSTDINVKKIASIGDVCESMKQQLLVLVEWAKYIPAFCELPLDDQVALLRAHAGEHLLLGATKRSMMYKDILLLGNNYVIHRNSCEVEISRVANRVLDELVRPFQEIQIDDNEYACLKAIVFFDPDAKGLSDPVKIKNMRFQVQIGLEDYINDRQYDSRGRFGELLLLLPTLQSITWQMIEQIQFVKLFGMVKIDNLLQEMLLGGASNDGSHLHHPMHPHLSQDPLTGQTILLGPMSTLVHADQISTPETPLPSPPQGSGQEQYKIAANQASVISHQHLSKQKQL | 116.1 | 0.8 | 0.81 | 0.8 | 0.6 | 0.84 | 1.2 | 128.6 | 1.20 | 1.8 | 0.4 | 0.40 | 511.7 | 1.0 | 1.03 | 11.3 | 2.0 | 2.01
